Results from the RNAGym collection of RNA variant scans (doi:10.7554/elife.80360).

B1: HDV Ribozyme (parent)
chain: GGCCGGCAUGGUCCCAGCCUCCUCGCUGGCGCCGGCUGGGCAACAUUCCGAGGGGACCGUCCCCUCGGUAAUGGCGAAUGGGACCCA

Variants of: B1
Assay: self-cleavage, relative activity (ratio to wild type); higher = more cleavage; co-transcriptional

| Variant | self-cleavage |
| --- | --- |
| GGCCGGCAUGGUCCCAGCCUCCUCGCUGGCGCCGGCUGGGCAACAUUCCGCGGGGUCCGUCCCCUCGGUAAUGGCGAAUGGGACCCA [A51C A56U] | 1.05 |
| GGCCGGCAUGGUCCCAGCCUCCUCGCUGGCGCCGGCUGGGCAACAUUCCGGGGGGACCUUCCCCUCGGUAAUGGCGAAUGGGACCCA [A51G G59U] | 1.1 |
| GGCCGGCAUGGUCCCAGCCUCCUCGCUGGCGCCGGCUGGGCAACAUUCCGGGGGGACCCUCCCCUCGGUAAUGGCGAAUGGGACCCA [A51G G59C] | 0.895 |
| GGCCGGCAUGGUCCCAGCCUCCUCGCUGGCGCCGGCUGGGCAACAUUCCGCGUGGACCGUCCCCUCGGUAAUGGCGAAUGGGACCCA [A51C G53U] | 0.69 |
| GGCCGGCAUGGUCCCAGCCUCCUCGCUGGCGCCGGCUGGGCAACAUUCCGCGAGGACCGUCCCCUCGGUAAUGGCGAAUGGGACCCA [A51C G53A] | 0.491 |
| GGCCGGCAUGGUCCCAGCCUCCUCGCUGGCGCCGGCUGGGCAACAUUCCGGGGGGACCGUCCCCUCGGUAAUGGCCAAUGGGACCCA [A51G G76C] | 0.831 |
| GGCCGGCAUGGUCCCAGCCUCCUCGCUGGCGCCGGCUGGGCAACAUUCCGGGGGGACCGUCCCCUCGGUAAUGGCAAAUGGGACCCA [A51G G76A] | 0.91 |
| GGCCGGCAUGGUCCCAGCCUCCUCGCUGGCGCCGGCUGGGCAACAUUCCGCGGGGACCAUCCCCUCGGUAAUGGCGAAUGGGACCCA [A51C G59A] | 0.92 |
| GGCCGGCAUGGUCCCAGCCUCCUCGCUGGCGCCGGCUGGGCAACAUUCCGCGGGGACCGUCCCCUCGGUAAUGGCGAAUGGGCCCCA [A51C A83C] | 0.571 |
| GGCCGGCAUGGUCCCAGCCUCCUCGCUGGCGCCGGCUGGGCAACAUUCCUAGGGGACCGUCCCCUCGGUAAUCGCGAAUGGGACCCA [G50U G73C] | 0.268 |
| GGCCGGCAUGGUCCCAGCCUCCUCGCUGGCGCCGGCUGGGCAACAUUCCGCGGGGACCGUUCCCUCGGUAAUGGCGAAUGGGACCCA [A51C C61U] | 0.914 |
| GGCCGGCAUGGUCCCAGCCUCCUCGCUGGCGCCGGCUGGGCAACAUUCCGCGGGGACCGUCCCCUCGGUAAUGGCCAAUGGGACCCA [A51C G76C] | 0.982 |
| GGCCGGCAUGGUCCCAGCCUCCUCGCUGGCGCCGGCUGGGCAACAUUCCUAGGGGACCGUCCCCGCGGUAAUGGCGAAUGGGACCCA [G50U U65G] | 0.945 |
| GGCCGGCAUGGUCCCAGCCUCCUCGCUGGCGCCGGCUGGGCAACAUUCCUAGGGGACCGUCCCCUCGGUAAUGGCCAAUGGGACCCA [G50U G76C] | 1.19 |
| GGCCGGCAUGGUCCCAGCCUCCUCGCUGGCGCCGGCUGGGCAACAUUCCGCGGGGAGCGUCCCCUCGGUAAUGGCGAAUGGGACCCA [A51C C57G] | 1.14 |
| GGCCGGCAUGGUCCCAGCCUCCUCGCUGGCGCCGGCUGGGCAACAUUCCGGGGGGACCGUCCCCACGGUAAUGGCGAAUGGGACCCA [A51G U65A] | 0.7 |
| GGCCGGCAUGGUCCCAGCCUCCUCGCUGGCGCCGGCUGGGCAACAUUCCGGGGGGACCGUCCCCGCGGUAAUGGCGAAUGGGACCCA [A51G U65G] | 0.682 |
| GGCCGGCAUGGUCCCAGCCUCCUCGCUGGCGCCGGCUGGGCAACAUUCCGCGGGGACCGUCCCCUCGGUAAUGGCGAAUGGGAACCA [A51C C84A] | 0.675 |
| GGCCGGCAUGGUCCCAGCCUCCUCGCUGGCGCCGGCUGGGCAACAUUCCGCGGGGACCGUCCCCUCGGUAAUGGCGAUUGGGACCCA [A51C A78U] | 0.133 |
| GGCCGGCAUGGUCCCAGCCUCCUCGCUGGCGCCGGCUGGGCAACAUUCCGGGGGGACCGUCCCGUCGGUAAUGGCGAAUGGGACCCA [A51G C64G] | 0.902 |
| GGCCGGCAUGGUCCCAGCCUCCUCGCUGGCGCCGGCUGGGCAACAUUCCGGGGGGACCGUCCCUUCGGUAAUGGCGAAUGGGACCCA [A51G C64U] | 0.892 |
| GGCCGGCAUGGUCCCAGCCUCCUCGCUGGCGCCGGCUGGGCAACAUUCCUAGGGGACCGUCCCCUCGUUAAUGGCGAAUGGGACCCA [G50U G68U] | 0.576 |

| Variant | self-cleavage |
| --- | --- |
| GGCCGGCAUGGUCCCAGCCUCCUCGCUGGCGCCGGCUGGGCAACAUUCCGCGGGGACCGUCCCCUCGGUACUGGCGAAUGGGACCCA [A51C A71C] | 0.692 |
| GGCCGGCAUGGUCCCAGCCUCCUCGCUGGCGCCGGCUGGGCAACAUUCCUAGGGGACCGUCCCCUCGGUAAUGGCGAAUAGGACCCA [G50U G80A] | 0.486 |
| GGCCGGCAUGGUCCCAGCCUCCUCGCUGGCGCCGGCUGGGCAACAUUCCUAGGGGACCGUCCCCUCGGUAAUGGCGAAUUGGACCCA [G50U G80U] | 0.2 |
| GGCCGGCAUGGUCCCAGCCUCCUCGCUGGCGCCGGCUGGGCAACAUUCCGGGGGGACCGUCCCCUCGGUAAUGGCGAAUGGGACCUA [A51G C86U] | 1.13 |
| GGCCGGCAUGGUCCCAGCCUCCUCGCUGGCGCCGGCUGGGCAACAUUCCGGGGGGACCGUCCCCUCGGUAAUGGCGAAUGUGACCCA [A51G G81U] | 0.356 |
| GGCCGGCAUGGUCCCAGCCUCCUCGCUGGCGCCGGCUGGGCAACAUUCCGGGGGGACCGUCCCCUCGGUAAUGGCGAAUGGGACUCA [A51G C85U] | 0.743 |
| GGCCGGCAUGGUCCCAGCCUCCUCGCUGGCGCCGGCUGGGCAACAUUCCGGGGGGACCGUCCCCUCGGUAAUGGCGAAUGGGACGCA [A51G C85G] | 0.984 |
| GGCCGGCAUGGUCCCAGCCUCCUCGCUGGCGCCGGCUGGGCAACAUUCCUAGGGGACCGUCCCCUCGGUAAUGGCGAACGGGACCCA [G50U U79C] | 0.507 |
| GGCCGGCAUGGUCCCAGCCUCCUCGCUGGCGCCGGCUGGGCAACAUUCCUAGGGCACCGUCCCCUCGGUAAUGGCGAAUGGGACCCA [G50U G55C] | 1.03 |
| GGCCGGCAUGGUCCCAGCCUCCUCGCUGGCGCCGGCUGGGCAACAUUCCUAGGGUACCGUCCCCUCGGUAAUGGCGAAUGGGACCCA [G50U G55U] | 0.906 |
| GGCCGGCAUGGUCCCAGCCUCCUCGCUGGCGCCGGCUGGGCAACAUUCCGCGGGGACCGUCCCCUCGGUAAUGGUGAAUGGGACCCA [A51C C75U] | 0.141 |
| GGCCGGCAUGGUCCCAGCCUCCUCGCUGGCGCCGGCUGGGCAACAUUCCGCGGGGACCGUCCCCUCGGUAAUGGCGUAUGGGACCCA [A51C A77U] | 0.429 |
| GGCCGGCAUGGUCCCAGCCUCCUCGCUGGCGCCGGCUGGGCAACAUUCCGCGGGGACCGUCCCCUCGGUAAUGGCGGAUGGGACCCA [A51C A77G] | 0.643 |
| GGCCGGCAUGGUCCCAGCCUCCUCGCUGGCGCCGGCUGGGCAACAUUCCGGGGGUACCGUCCCCUCGGUAAUGGCGAAUGGGACCCA [A51G G55U] | 1.06 |
| GGCCGGCAUGGUCCCAGCCUCCUCGCUGGCGCCGGCUGGGCAACAUUCCGCGGGGACCGUCCCCUCGGUAAAGGCGAAUGGGACCCA [A51C U72A] | 0.609 |
| GGCCGGCAUGGUCCCAGCCUCCUCGCUGGCGCCGGCUGGGCAACAUUCCGCGGGGACCGUCCCCUCGGUAAGGGCGAAUGGGACCCA [A51C U72G] | 0.529 |
| GGCCGGCAUGGUCCCAGCCUCCUCGCUGGCGCCGGCUGGGCAACAUUCCGGGGGGACCGUCCCCUCGGUAGUGGCGAAUGGGACCCA [A51G A71G] | 0.752 |
| GGCCGGCAUGGUCCCAGCCUCCUCGCUGGCGCCGGCUGGGCAACAUUCCGCGGGGACCGUCCCCUCGGUAAUGGCGAAUUGGACCCA [A51C G80U] | 0.199 |
| GGCCGGCAUGGUCCCAGCCUCCUCGCUGGCGCCGGCUGGGCAACAUUCCGCGGGGACCGUCCCCUCGGUCAUGGCGAAUGGGACCCA [A51C A70C] | 1.03 |
| GGCCGGCAUGGUCCCAGCCUCCUCGCUGGCGCCGGCUGGGCAACAUUCCGCGGGGACCGUCCCCUCGGUAAUGGCGAAUGGGACCCG [A51C A87G] | 0.862 |
| GGCCGGCAUGGUCCCAGCCUCCUCGCUGGCGCCGGCUGGGCAACAUUCCGCGGGGACCGUCCCCUAGGUAAUGGCGAAUGGGACCCA [A51C C66A] | 1.09 |
| GGCCGGCAUGGUCCCAGCCUCCUCGCUGGCGCCGGCUGGGCAACAUUCCGCGGGGACCGUCCCCUGGGUAAUGGCGAAUGGGACCCA [A51C C66G] | 0.864 |

| Variant | self-cleavage |
| --- | --- |
| GGCCGGCAUGGUCCCAGCCUCCUCGCUGGCGCCGGCUGGGCAACAUUCCGGGGGGACCGUGCCCUCGGUAAUGGCGAAUGGGACCCA [A51G C61G] | 0.964 |
| GGCCGGCAUGGUCCCAGCCUCCUCGCUGGCGCCGGCUGGGCAACAUUCCGGGGGGACCGUACCCUCGGUAAUGGCGAAUGGGACCCA [A51G C61A] | 0.954 |
| GGCCGGCAUGGUCCCAGCCUCCUCGCUGGCGCCGGCUGGGCAACAUUCCGGGGGGACCGGCCCCUCGGUAAUGGCGAAUGGGACCCA [A51G U60G] | 0.867 |
| GGCCGGCAUGGUCCCAGCCUCCUCGCUGGCGCCGGCUGGGCAACAUUCCGGGAGGACCGUCCCCUCGGUAAUGGCGAAUGGGACCCA [A51G G53A] | 0.831 |
| GGCCGGCAUGGUCCCAGCCUCCUCGCUGGCGCCGGCUGGGCAACAUUCCUAGGGGACCUUCCCCUCGGUAAUGGCGAAUGGGACCCA [G50U G59U] | 0.939 |
| GGCCGGCAUGGUCCCAGCCUCCUCGCUGGCGCCGGCUGGGCAACAUUCCGCGGGGACCGUCCCCUCGGUAAUGGCGAAUGAGACCCA [A51C G81A] | 0.323 |
| GGCCGGCAUGGUCCCAGCCUCCUCGCUGGCGCCGGCUGGGCAACAUUCCGCGGGGACCGUCCCCUCGGUAAUGGCGAAUGGUACCCA [A51C G82U] | 0.386 |
| GGCCGGCAUGGUCCCAGCCUCCUCGCUGGCGCCGGCUGGGCAACAUUCCGGGGGGAGCGUCCCCUCGGUAAUGGCGAAUGGGACCCA [A51G C57G] | 0.916 |
| GGCCGGCAUGGUCCCAGCCUCCUCGCUGGCGCCGGCUGGGCAACAUUCCGGGGGGACCGUCCCCUCGGUAAUGGCGAAUGGAACCCA [A51G G82A] | 0.125 |
| GGCCGGCAUGGUCCCAGCCUCCUCGCUGGCGCCGGCUGGGCAACAUUCCGGGGGGACCGUCCCCUCGGUAAUGGCGAAUGGCACCCA [A51G G82C] | 0.322 |
| GGCCGGCAUGGUCCCAGCCUCCUCGCUGGCGCCGGCUGGGCAACAUUCCGGGGGGACCGUCCCCUCGGUAAUGGCGAAUGGUACCCA [A51G G82U] | 0.203 |
| GGCCGGCAUGGUCCCAGCCUCCUCGCUGGCGCCGGCUGGGCAACAUUCCGCGGGGACCGUCACCUCGGUAAUGGCGAAUGGGACCCA [A51C C62A] | 0.623 |
| GGCCGGCAUGGUCCCAGCCUCCUCGCUGGCGCCGGCUGGGCAACAUUCCUAGGGGACCGUCCCCUCGGUAAUGGCGAAUGGAACCCA [G50U G82A] | 0.499 |
| GGCCGGCAUGGUCCCAGCCUCCUCGCUGGCGCCGGCUGGGCAACAUUCCGGUGGGACCGUCCCCUCGGUAAUGGCGAAUGGGACCCA [A51G G52U] | 1.02 |
| GGCCGGCAUGGUCCCAGCCUCCUCGCUGGCGCCGGCUGGGCAACAUUCCGCGGGGACCGACCCCUCGGUAAUGGCGAAUGGGACCCA [A51C U60A] | 1.11 |
| GGCCGGCAUGGUCCCAGCCUCCUCGCUGGCGCCGGCUGGGCAACAUUCCGCGGGGACCGUCCCCUCGGUAAUGGCGAAUGGGACCGA [A51C C86G] | 0.712 |
| GGCCGGCAUGGUCCCAGCCUCCUCGCUGGCGCCGGCUGGGCAACAUUCCGCGGGGACCGUCCCCUCGGUAAUGGCGAAUGGGACCUA [A51C C86U] | 1.01 |
| GGCCGGCAUGGUCCCAGCCUCCUCGCUGGCGCCGGCUGGGCAACAUUCCGCGGGGACCGUCCCCUCGGUAAUGGCGAAUGGGACCAA [A51C C86A] | 0.872 |
| GGCCGGCAUGGUCCCAGCCUCCUCGCUGGCGCCGGCUGGGCAACAUUCCGGGGGGACCGUCCCCUCGGUAAUGCCGAAUGGGACCCA [A51G G74C] | 0.148 |
| GGCCGGCAUGGUCCCAGCCUCCUCGCUGGCGCCGGCUGGGCAACAUUCCGGGGGGACCGUCCCCUCGGUAACGGCGAAUGGGACCCA [A51G U72C] | 0.864 |
